Experimental findings from publication PMC13022382 (Nature Communications, 2026) are described below.

Primed or numbered codes have the meaning given here. No end group written: not given here. *: point of attachment. TMR‑6COOH = tetramethylrhodamine, CN(C)c1ccc2c(-c3cc(C(=O)*)ccc3C(=O)[O-])c3ccc(N(C)C)cc3[o+]c2c1; Biotin = O=C1N[C@H]2[C@H](CS[C@H]2CCCCC(=O)*)N1; PEG2′ = Fmoc-PEG2-OH spacer; PEG4′ = not defined here

In one test the target is T1, TMR-Hpep9 conjugate.
T1 peptide: {TMR‑6COOH-PEG2′}-RGWSWREMFRLFRT
Kind of test: fluorescence polarisation. Background: Fluorescence polarisation rises when a labelled molecule tumbles more slowly, as on binding a larger partner.

In the next test the target is T2, TMR-Hpep11 conjugate.
T2 peptide: {TMR‑6COOH-PEG2′}-SKRDWREMFRLFRT
As to the kind of experiment: fluorescence polarisation.

A further test addresses T3, biotin-Hpep9 conjugate.
T3 chain: {Biotin-PEG4′}-RGWSWREMFRLFRT
Kind of test: BLI. Background: BLI is a label-free optical method that tracks binding on a fibre tip over time.

The next test concerns the target T4, biotin-Hpep11 conjugate.
T4 chain: {Biotin-PEG4′}-SKRDWREMFRLFRT
Kind of test: BLI.

B1: cpHaloΔ2 (His10-tagged) (domain or fragment)
chain: DVGRKLIIDQNVFIEGTLPMGVVRPLTEEEMDHYREPFLNPKDREPLWRFPNELPIAGEPANIVALVEEYMDWLHQSPVPKLLFWGTPGVLIPPAEAARLAKSLPNCKAVDIGPGLNLLQEDNPDLIGSEIARWLSTLEIKSKYDRDQILKIIAELEKKTGGSIGTGFPFDPHYVEVLGSRMHYVDVGPRDGTPVLFLHGNPTSSYVWRNIIPHVAPTHRCIAPDLIGMGKSDKPDLGYFFDDHVRFMDAFIEALGLEEVVLVIHDWGSALGFHWAKRHPERVKGIAFMEFIRPIPTWDEW
In general, Kd refers to the free concentration of one partner at which half of the binding sites on the other are occupied at equilibrium, for simple one-to-one binding. Read a high Kd as weaker binding. For the molecule B1, the Kd was 26.3 nM with TMR-Hpep9 conjugate and 38.3 nM in the test with TMR-Hpep11 conjugate.

B2: TMR-labeled cpHaloΔ3 (domain or fragment)
chain: EKKGDVGRKLIIDQNVFIEGTLPMGVVRPLTEEEMDHYREPFLNPKDREPLWRFPNELPIAGEPANIVALVEEYMDWLHQSPVPKLLFWGTPGVLIPPAEAARLAKSLPNCKAVDIGPGLNLLQEDNPDLIGSEIARWLSTLEIKSKYDRDQILKIIAELEKKTGGSIGTGFPFDPHYVEVLGSRMHYVDVGPRDGTPVLFLHGNPTSSYVWRNIIPHVAPTHRCIAPDLIGMGKSDKPDLGYFFDDHVRFMDAFIEALGLEEVVLVIHDWGSALGFHWAKRHPERVKGIAFMEFIRPIPTWDEWGDVE
modifications: labeled with the HaloTag ligand CA-TMR (chloroalkane derivative of tetramethylrhodamine)
In general, koff refers to the rate constant with which the complex falls apart. A lower koff goes with slow dissociation. Usually kon stands for the second-order rate constant of association. High values mean faster complex formation, low ones slower complex formation. In the test with biotin-Hpep9 conjugate, B2 had a dissociation constant (Kd) of 4.86 nM, a koff of 0.00104 s⁻¹ and a kon of 214000 M⁻¹ s⁻¹. Besides, in the test with biotin-Hpep11 conjugate, the Kd amounted to 10.6 nM, the koff amounted to 0.000687 s⁻¹ and the kon turned out to be 64900 M⁻¹ s⁻¹.

B3: SiR-labeled cpHaloΔ3 (domain or fragment)
chain: EKKGDVGRKLIIDQNVFIEGTLPMGVVRPLTEEEMDHYREPFLNPKDREPLWRFPNELPIAGEPANIVALVEEYMDWLHQSPVPKLLFWGTPGVLIPPAEAARLAKSLPNCKAVDIGPGLNLLQEDNPDLIGSEIARWLSTLEIKSKYDRDQILKIIAELEKKTGGSIGTGFPFDPHYVEVLGSRMHYVDVGPRDGTPVLFLHGNPTSSYVWRNIIPHVAPTHRCIAPDLIGMGKSDKPDLGYFFDDHVRFMDAFIEALGLEEVVLVIHDWGSALGFHWAKRHPERVKGIAFMEFIRPIPTWDEWGDVE
modifications: labeled with the HaloTag ligand CA-SiR (chloroalkane derivative of silicon rhodamine)
For the molecule B3, the Kd was determined as 18.8 nM with biotin-Hpep9 conjugate, 3.26 nM in the test with TMR-Hpep9 conjugate and 1.34 nM with TMR-Hpep11 conjugate. The molecule also registered a koff with biotin-Hpep9 conjugate of 0.00149 s⁻¹. The figures for the kon with biotin-Hpep9 conjugate and with biotin-Hpep11 conjugate were 78900 M⁻¹ s⁻¹ and 50000 M⁻¹ s⁻¹, respectively.
